Results taken from PMC4503318 (Chemistry & biology, 2015).
Where two headings read alike, the source gives them in different places.

B1: Pf-like human LysRS (human LysRS 70-584 with P300T, Q321V, T337S) (enzyme)
chain: not shown
B2: Plasmodium falciparum lysyl-tRNA synthetase (PfLysRS), residues 77-583 (enzyme)
chain: not shown

Experiments:
crystal structure [1] = molecular target: the molecule itself; experiment: crystal structure
crystal structure [2] = molecular target: the molecule itself; experiment: crystal structure; remark: listed apart in the source

Protein | binding result (crystal structure [1]) | binding result (crystal structure [2])
B1 | binds | –
B2 | – | binds
